Source: patent US20030109416A1 (MOCHIDA PHARMACEUTICAL, published 2003)

Molecular target: T1, extracellular domain of the human Fas ligand (produced in Pichia pastoris GS115) (human, UniProt P48023 103-281)
T1 construct: extracellular domain; also called human Fas ligand extracellular domain
T1 sequence (looked up): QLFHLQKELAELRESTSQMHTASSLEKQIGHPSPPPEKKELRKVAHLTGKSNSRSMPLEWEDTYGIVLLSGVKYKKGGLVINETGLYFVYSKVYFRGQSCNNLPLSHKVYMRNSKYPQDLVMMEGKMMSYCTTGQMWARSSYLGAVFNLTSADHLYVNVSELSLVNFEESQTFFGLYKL
Assay: affinity chromatography on immobilized hFas-Fc

B1: hFas-Fc (chimeric protein of the extracellular domain of the human Fas antigen and Fc region of human IgG1) (Fc fusion, UniProt P25445 26-173, looked up)
chain: QVTDINSKGLELRKTVTTVETQNLEGLHHDGQFCHKPCPPGERKARDCTVNGDEPDCVPCQEGKEYTDKAHFSSKCRRCRLCDEGHGLEVEINCTRTQNTKCRCKPNFFCNSTVCEHCDPCTKCEHGIIKECTLTSNTKCKEEGSRSN
notes: extracellular domain; The construct limits are only in WO 95/13293; also called human Fas-Fc; product of plasmid pBF-Fc1; not shown: Fc region of human IgG1
  binding result: binds
